Five molecules from patent US11091559B2, “Anti-ALK antibodies and methods for use thereof” (Celldex Therapeutics, Inc., priority 2015, dated 2021) can be followed below.

For data set [1], the target named is murine ALK (purified mouse ALK antigen) (Mus musculus, UniProt P97793). Nature of the data set: Mouse ALK cross-reactivity, solid-state ELISA. The format is binding. Further details: key: − none; + weak; ++ moderate; +++ strong. The note with it: cross-reactivity with murine ALK. How it is done: Purified mAbs were evaluated for their ability to bind murine ALK by solid-state ELISA, or flow cytometry on Neuro-2a cells that express low levels of endogenous murine ALK. […]

Data set [2] deals with ALK (basal phosphorylation in NB1 cells). The data set can be described thus: Western blot of ALK phosphorylation in NB1 cells. The format is cell-based, human. The note with it: effect in words. How it is done:
Lysed cells were subjected to SDS-PAGE, transferred to nitrocellulose and immunoblotted with antibodies against total, and phospho-specific ALK, AKT, and MAPK. FIG. 4B depicts an ELISA of NB1 cells grown in media with reduced serum and treated with 30-100 nM of each antibody for 1-2 hours. Cell lysates were incubated on ELISA plates with an anti-ALK antibody, followed by incubation with a pan phosphotyrosine antibody coupled to HRP.
Cell lysates were subjected to SDS-PAGE and transferred to nitrocellulose. Immunoblotting was performed with antibodies against total, and phospho-specific ALK, AKT, and MAPK (purchased from Cell Signaling and utilized per manufacturer's instructions). HRP (horse radish peroxidase)-conjugated secondary antibodies (Thermo Scientific, Waltham, Mass.) were used along with Supersignal West Pico Chemiluminescent Substrate (Thermo Scientific, Waltham, Mass.) to image blots.
Anti-ALK monoclonal antibodies generated in Example 1 were evaluated via Western blotting for their ability to activate or inhibit basal levels of ALK phosphorylation in NB1 cells (FIG. 4A). A subset of ALK antibodies stimulated ALK tyrosine phosphorylation and a different subset of antibodies inhibited basal levels of ALK phosphorylation. See also Table 18, below. […] That is, ALK antibodies that stimulated ALK tyrosine phosphorylation increased MAPK and AKT phosphorylation, whereas ALK antibodies that inhibited ALK tyrosine phosphorylation decreased basal levels of MAPK and AKT phosphorylation (FIG. 4A). Similar results were obtained in ELISA-based ALK phosphorylation assays from lysates of NB1 cells treated with ALK antibodies (FIG. 4B).

Data set [3] concerns the target C-terminal region of human ALK ECD (T637-S1038) (Homo sapiens, UniProt Q9UM73). Nature of the data set: Competitive binding assay (epitope binning) by flow cytometry. The note with it: antibodies to the C-terminal region. How it is done: Antibodies that bind to the C-terminal region of human ALK ECD (T637-S1038) were further characterized using a competitive binding assay. A pairwise matrix approach was used whereby each antibody was fluorescently labeled and tested for its ability to bind to ALK-expressing cells pre-incubated with an unlabeled antibody. The ability of both antibodies to bind the C-terminal domain simultaneously was tested via flow cytometry. If both antibodies bound simultaneously, they were put into different bins and considered to belong to a separate epitope class.

Data set [4] has as its system ALK (total protein levels in NB1 cells). The data set can be described thus: ALK turnover (total protein levels) by Western blot, 24 hour treatment of NB1 cells. The format is cell-based, human. Details: key: − none; + weak; ++ moderate; +++ strong. An excerpt:
FIG. 5 depicts a Western blot of a panel of ALK antibodies.
See also Table 18, below.

murine ALK (purified mouse ALK antigen), sequence (P97793 19-1042 limits assumed): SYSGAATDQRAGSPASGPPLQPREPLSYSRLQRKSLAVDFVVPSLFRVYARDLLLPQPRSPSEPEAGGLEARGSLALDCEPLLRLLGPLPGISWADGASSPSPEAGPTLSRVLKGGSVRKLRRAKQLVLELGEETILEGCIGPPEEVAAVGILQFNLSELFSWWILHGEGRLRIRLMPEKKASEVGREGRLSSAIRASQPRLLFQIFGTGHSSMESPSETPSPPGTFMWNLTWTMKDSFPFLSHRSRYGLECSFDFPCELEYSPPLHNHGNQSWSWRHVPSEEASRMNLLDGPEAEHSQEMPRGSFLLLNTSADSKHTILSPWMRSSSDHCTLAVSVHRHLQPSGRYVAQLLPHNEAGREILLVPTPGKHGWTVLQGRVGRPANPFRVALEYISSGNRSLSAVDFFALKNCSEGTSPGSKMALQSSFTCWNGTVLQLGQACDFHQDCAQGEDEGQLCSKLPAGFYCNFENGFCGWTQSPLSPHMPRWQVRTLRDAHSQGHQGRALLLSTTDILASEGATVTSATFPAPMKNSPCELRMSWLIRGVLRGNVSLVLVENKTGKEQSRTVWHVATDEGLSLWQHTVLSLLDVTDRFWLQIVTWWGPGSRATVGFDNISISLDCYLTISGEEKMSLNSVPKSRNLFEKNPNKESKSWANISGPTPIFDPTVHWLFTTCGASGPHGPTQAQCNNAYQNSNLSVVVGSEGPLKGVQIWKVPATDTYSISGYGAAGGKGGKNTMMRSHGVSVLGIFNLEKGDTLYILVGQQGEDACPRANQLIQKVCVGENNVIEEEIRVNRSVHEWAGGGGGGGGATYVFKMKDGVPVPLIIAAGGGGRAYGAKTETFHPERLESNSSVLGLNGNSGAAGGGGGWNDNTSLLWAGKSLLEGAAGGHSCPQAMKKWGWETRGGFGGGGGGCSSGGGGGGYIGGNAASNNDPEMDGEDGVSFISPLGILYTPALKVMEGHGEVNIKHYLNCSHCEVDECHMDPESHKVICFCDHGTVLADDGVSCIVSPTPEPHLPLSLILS
C-terminal region of human ALK ECD (T637-S1038), sequence (Q9UM73 19-1620): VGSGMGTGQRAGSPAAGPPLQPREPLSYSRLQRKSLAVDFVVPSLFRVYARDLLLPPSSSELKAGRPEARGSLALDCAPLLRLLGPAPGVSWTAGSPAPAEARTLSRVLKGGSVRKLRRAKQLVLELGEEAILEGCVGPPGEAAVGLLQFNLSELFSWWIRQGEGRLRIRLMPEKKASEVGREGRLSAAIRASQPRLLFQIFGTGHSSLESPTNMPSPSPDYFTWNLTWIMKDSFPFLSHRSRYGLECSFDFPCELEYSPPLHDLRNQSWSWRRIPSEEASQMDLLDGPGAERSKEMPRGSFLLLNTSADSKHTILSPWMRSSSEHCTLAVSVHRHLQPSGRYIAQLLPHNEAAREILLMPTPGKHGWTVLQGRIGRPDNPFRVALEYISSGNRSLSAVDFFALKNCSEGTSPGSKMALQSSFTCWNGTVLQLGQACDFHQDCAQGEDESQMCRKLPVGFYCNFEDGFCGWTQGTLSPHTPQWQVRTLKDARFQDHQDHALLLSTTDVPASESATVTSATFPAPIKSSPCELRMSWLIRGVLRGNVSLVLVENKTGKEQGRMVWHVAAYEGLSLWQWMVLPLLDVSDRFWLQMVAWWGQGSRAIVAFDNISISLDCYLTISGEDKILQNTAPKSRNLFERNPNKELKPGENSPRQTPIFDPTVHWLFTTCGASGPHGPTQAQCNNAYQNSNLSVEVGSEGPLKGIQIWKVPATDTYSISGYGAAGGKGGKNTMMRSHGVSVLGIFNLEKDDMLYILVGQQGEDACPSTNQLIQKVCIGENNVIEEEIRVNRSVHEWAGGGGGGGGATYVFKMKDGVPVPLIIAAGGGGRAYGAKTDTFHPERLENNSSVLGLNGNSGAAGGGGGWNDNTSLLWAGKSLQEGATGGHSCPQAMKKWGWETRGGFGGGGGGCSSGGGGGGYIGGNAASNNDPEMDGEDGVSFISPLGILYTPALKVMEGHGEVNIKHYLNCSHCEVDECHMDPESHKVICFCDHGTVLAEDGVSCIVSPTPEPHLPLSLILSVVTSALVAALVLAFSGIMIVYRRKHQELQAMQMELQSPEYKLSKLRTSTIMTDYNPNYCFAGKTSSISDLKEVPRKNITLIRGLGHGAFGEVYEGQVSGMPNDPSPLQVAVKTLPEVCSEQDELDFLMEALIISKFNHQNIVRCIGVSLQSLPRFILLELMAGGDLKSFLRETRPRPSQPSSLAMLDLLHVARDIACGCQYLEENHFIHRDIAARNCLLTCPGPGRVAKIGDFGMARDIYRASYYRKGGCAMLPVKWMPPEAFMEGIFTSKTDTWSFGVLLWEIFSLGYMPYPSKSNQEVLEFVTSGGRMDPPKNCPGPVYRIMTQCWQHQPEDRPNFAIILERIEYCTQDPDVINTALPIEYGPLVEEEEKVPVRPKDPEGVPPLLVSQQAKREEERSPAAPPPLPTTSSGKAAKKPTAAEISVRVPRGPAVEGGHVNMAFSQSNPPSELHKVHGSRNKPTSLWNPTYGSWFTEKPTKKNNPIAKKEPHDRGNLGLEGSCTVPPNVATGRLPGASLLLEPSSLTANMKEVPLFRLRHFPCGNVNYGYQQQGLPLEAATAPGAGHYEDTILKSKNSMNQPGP

B1: Ab332: anti-ALK monoclonal antibody; VL SEQ ID NO: 419, VH SEQ ID NO: 420 (antibody, V domains shown)
VH: EVQLQQSGPELVKPGTSVKISCKASGYTFTDYYMNWMKQSHGKSLEWIGDINPNNGVTSYNQKFKGKATLTVDKSSSTAYMELRSLTSEDSAVYYCAREDYGSNYFDYWGQGTTLTVSS
VL: DIVLTQSPASLAVSLGQRATISCKASQSVDYDGDSYMNWYQQKPGQPPKLLIYAASNLESGIPARLSGSGSGTDFTLNIHPVEEEDAATYYCQQSNEDPPTFGGGTKLEIRR
modifications: VH domain - Ab332; VL domain - Ab332
Regarding B1, the “mouse ALK binding” value in data set [1] is “+”. In addition, the ALK phosphorylation entry in data set [2] is given as “weak agonist”.

B2: Ab325: anti-ALK monoclonal antibody; VL SEQ ID NO: 405, VH SEQ ID NO: 406 (antibody, V domains shown)
VH: QVQLQQSGAELVKPGASVKISCKASGYAFSSYWMNWVKQRPGKGLEWIGQIYPGDGDTNYNGKFKGKATLTADKSSSTAYMQLSSLTSEDSAVYFCARWYYGSYYAMDYWGQGTSVTVSS
VL: DIQMTQTTSSLSASLGDRVTISCRASQDISNYLNWYQQKPDGTVKLLIYYTSRLHSGVPSRFSGSGSGTDYSLTISNLEQEDIATYFCQQGNTLPRTFGGGTKLEIKR
modifications: VH domain - Ab325; VL domain - Ab325
As to B2, the “mouse ALK binding” value in data set [1] is “+”. Further, in data set [3], the “Bin/Domain (bin)” value is on record as 1. The ALK turnover entry in data set [4] is on record as “++”.

B3: Ab329: anti-ALK monoclonal antibody; VL SEQ ID NO: 413, VH SEQ ID NO: 414 (antibody, V domains shown)
VH: QVQLKESGPGLVKPSATLSLTCTVSGFSLTSYHVCWIRQTPGKGLEWMGVIWGDGRTTYNPPLKSRLSISRDTSKSQVFLKMSSLKTEDTATYYCARATMTGHGDAWGQGASVTVSS
VL: DIQMTQSPASLSASLEEIVTITCQASQDIDNYLSWYQQKPGKSPHLLIHSATSLADGVPSRFSGGRSGTQFSLKINRLQVEDTGIYYCLQHYSGWTFGGGTKLELKR
modifications: VH domain - Ab329; VL domain - Ab329
B3: in data set [1], the “mouse ALK binding” value is reported as “+++”. Moreover, the ALK phosphorylation entry in data set [2] is given as “weak agonist”.

B4: Ab330: anti-ALK monoclonal antibody; VL SEQ ID NO: 415, VH SEQ ID NO: 416 (antibody, V domains shown)
VH: EVQVVETGGGVVQPGKSLEITCATSGLTFSTAWMYWVRQSSDRRLEWIARIKDKSNKFASDYVESVRGRFTISRDDSRSSVYLQMNNLKEEDTATYYCTTSYGYAWGQGVMVTVSS
VL: DIQMTQSPSSMSASLGDRVTITCQASQDIGNYLIWFQQKPGKSPRPLIYYATNLANGVPSRFSGSRSGSEYSLTITSLESEDMADYHCLQYKQHLTFGSGTKLEIER
modifications: VH domain - Ab330; VL domain - Ab330
As for B4, the “mouse ALK binding” value in data set [1] is listed as “+”. The ALK phosphorylation entry in data set [2] is “inhibitor”.

B5: Ab331: anti-ALK monoclonal antibody; VL SEQ ID NO: 417, VH SEQ ID NO: 418 (antibody, V domains shown)
VH: EVQVVETGGGVVQPGKSLEITCATSGLTFSTAWMYWVRQSSDRRLEWIARIKDKSNNFASDYVESVRGRFTISRDDSRSSVYLQMNNLKEEDTATYYCTTSYGYAWGQGVMVTVSS
VL: DIQMTQSPSSMSASLGDRITITCQASQDIGNYLIWFQQKPGKSPRPLIYYATNLANGVPSRFSGSRSGSEYSLTITSLESEDMADYHCLQYKQHLTFGSGTKLEIER
modifications: VH domain - Ab331; VL domain - Ab331
As for B5, the “mouse ALK binding” value in data set [1] is “−”. The ALK phosphorylation result in data set [2] is “inhibitor”.
